Measured values reported in patent publication US11230581B2, “Peptides and combination of peptides for use in immunotherapy against ovarian cancer and other cancers” (Immatics Biotechnologies GmbH, priority 2015, dated 2022).

Target: HLA-A*02:01 (Homo sapiens, UniProt P04439, D140Y/D185E/D98H/E176V/E277Q/G131W/G231S/I119V/I121R/I166T/I218V/L300P/L318F/N151K/N90K/P208A/P217A/Q86G/Q94H/R138H/R169H/T345S)
Assay: MHC binding assay (UV-ligand exchange, β2m ELISA, peptide exchange yield)
Details: binding of HLA-class I restricted peptides to HLA-A*02:01, UV-ligand exchange
In short: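 Yield of stabilized complexes quantified via the β2m light chain in an ELISA (streptavidin capture, 100-fold diluted monomers, HRP anti-β2m 2 ug/ml at 37 °C, TMB, A450). The complexes come from UV-triggered replacement of a photocleavable ligand by the candidate peptide.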

| Substance | Peptide exchange (MHC class I binding score, peptide exchange yield) |
| --- | --- |
| 44 (ILDPISSGFLL; listed as Homo sapiens) [compound 44] | “++” (≥20% = ++) |
| 350 (ALLDVTHSELTV; listed as Homo sapiens) [compound 350] | “+++” (≥50 = +++) |
| 403 (KLYDRILRV; listed as Homo sapiens) [compound 403] | “++” (≥20% = ++) |
| 553 (SLLNQDLHWSL; listed as Homo sapiens) [compound 553] | “++++” (≥75% = ++++) |
| 52 (FLLAHGLGFLL; listed as Homo sapiens) [compound 52] | “++++” (≥75% = ++++) |
| 4 (GIMEHITKI; listed as Homo sapiens) [compound 4] | “++++” (≥75% = ++++) |
| 452 (ILLEHGADPNL; listed as Homo sapiens) [compound 452] | “+++” (≥50 = +++) |
| 161 (ALLEGVNTV; listed as Homo sapiens) [compound 161] | “+++” (≥50 = +++) |
| 345 (VIWKALIHL; listed as Homo sapiens) [compound 345] | “+++” (≥50 = +++) |
| 295 (VLDRESPNV; listed as Homo sapiens) [compound 295] | “+++” (≥50 = +++) |
| 53 (KMIETDILQKV; listed as Homo sapiens) [compound 53] | “++++” (≥75% = ++++) |
| 181 (LLWAGTAFQV; listed as Homo sapiens) [compound 181] | “+++” (≥50 = +++) |
| 97 (SLINGSFLV; listed as Homo sapiens) [compound 97] | “+++” (≥50 = +++) |
| 275 (YLVYILNEL; listed as Homo sapiens) [compound 275] | “++” (≥20% = ++) |
| 327 (GLAPFTEGISFV; listed as Homo sapiens) [compound 327] | “+++” (≥50 = +++) |
| 362 (TLYGLSVLL; listed as Homo sapiens) [compound 362] | “+++” (≥50 = +++) |
| 439 (YLLQEIYGI; listed as Homo sapiens) [compound 439] | “+++” (≥50 = +++) |
| 3 (SLASKLTTL; listed as Homo sapiens) [compound 3] | “++++” (≥75% = ++++) |
| 26 (ALLELAEEL; listed as Homo sapiens) [compound 26] | “+++” (≥50 = +++) |
| 41 (SLMPHIPGL; listed as Homo sapiens) [compound 41] | “+++” (≥50 = +++) |
| 510 (KLYSVVSQL; listed as Homo sapiens) [compound 510] | “++” (≥20% = ++) |
| 551 (KLYESLLPFA; listed as Homo sapiens) [compound 551] | “+++” (≥50 = +++) |

| Substance | Peptide exchange (MHC class I binding score, peptide exchange yield) |
| --- | --- |
| 70 (GLLDYPVGV; listed as Homo sapiens) [compound 70] | “+++” (≥50 = +++) |
| 447 (QLVPALAKV; listed as Homo sapiens) [compound 447] | “++” (≥20% = ++) |
| 451 (LLLLDTVTMQV; listed as Homo sapiens) [compound 451] | “++” (≥20% = ++) |
| 579 (NLMEMVAQL; listed as Homo sapiens) [compound 579] | “++” (≥20% = ++) |
| 1 (SLMEPPAVLLL; listed as Homo sapiens) [compound 1] | “+++” (≥50 = +++) |
| 357 (SMHDLVLQV; listed as Homo sapiens) [compound 357] | “+++” (≥50 = +++) |
| 220 (LLQKFVPEI; listed as Homo sapiens) [compound 220] | “++” (≥20% = ++) |
| 243 (LLLNELPSV; listed as Homo sapiens) [compound 243] | “+++” (≥50 = +++) |
| 571 (LLLTTIPQI; listed as Homo sapiens) [compound 571] | “+++” (≥50 = +++) |
| 326 (FLPEALDFV; listed as Homo sapiens) [compound 326] | “+++” (≥50 = +++) |
| 269 (RVLEVGALQAV; listed as Homo sapiens) [compound 269] | “++” (≥20% = ++) |
| 219 (KLSDIGITV; listed as Homo sapiens) [compound 219] | “+++” (≥50 = +++) |
| 449 (KLAEGLDIQL; listed as Homo sapiens) [compound 449] | “+++” (≥50 = +++) |
| 475 (LLLNEEALAQI; listed as Homo sapiens) [compound 475] | “+++” (≥50 = +++) |
| 539 (ALFDAQAQV; listed as Homo sapiens) [compound 539] | “+++” (≥50 = +++) |
| 343 (SLLEVNEESTV; listed as Homo sapiens) [compound 343] | “+++” (≥50 = +++) |
| 307 (ALPVSLPQI; listed as Homo sapiens) [compound 307] | “+++” (≥50 = +++) |
| 365 (YVIDQGETDVYV; listed as Homo sapiens) [compound 365] | “+++” (≥50 = +++) |
| 441 (ALLENPKMEL; listed as Homo sapiens) [compound 441] | “+++” (≥50 = +++) |
| 280 (VLPDPEVLEAV; listed as Homo sapiens) [compound 280] | “+++” (≥50 = +++) |
| 208 (KISPVTFSV; listed as Homo sapiens) [compound 208] | “+++” (≥50 = +++) |
| 623 (YLVEDIQHI; listed as Homo sapiens) [compound 623] | “+++” (≥50 = +++) |

| Substance | Peptide exchange (MHC class I binding score, peptide exchange yield) |
| --- | --- |
| 569 (KLVDRTWTL; listed as Homo sapiens) [compound 569] | “+++” (≥50 = +++) |
| 402 (VLFSGALLGL; listed as Homo sapiens) [compound 402] | “++” (≥20% = ++) |
| 373 (SLLEDKGLAEV; listed as Homo sapiens) [compound 373] | “++” (≥20% = ++) |
| 66 (FLDENIGGVAV; listed as Homo sapiens) [compound 66] | “+++” (≥50 = +++) |
| 89 (YILPTETIYV; listed as Homo sapiens) [compound 89] | “++++” (≥75% = ++++) |
| 570 (ALANQIPTV; listed as Homo sapiens) [compound 570] | “++” (≥20% = ++) |
| 285 (QLLHVGVTV; listed as Homo sapiens) [compound 285] | “+++” (≥50 = +++) |
| 352 (SLLELLHIYV; listed as Homo sapiens) [compound 352] | “+++” (≥50 = +++) |
| 531 (YTLPIASSIRL; listed as Homo sapiens) [compound 531] | “+++” (≥50 = +++) |
| 590 (SLIEKLWQT; listed as Homo sapiens) [compound 590] | “++” (≥20% = ++) |
| 478 (YLLHEKLNL; listed as Homo sapiens) [compound 478] | “+++” (≥50 = +++) |
| 282 (LLADVVPTT; listed as Homo sapiens) [compound 282] | “+++” (≥50 = +++) |
| 388 (SLTIDGIRYV; listed as Homo sapiens) [compound 388] | “+++” (≥50 = +++) |
| 39 (SVAPNLPAV; listed as Homo sapiens) [compound 39] | “+++” (≥50 = +++) |
| 543 (GLLPTPITQQASL; listed as Homo sapiens) [compound 543] | “+++” (≥50 = +++) |
| 202 (ALLDQQGSRWTL; listed as Homo sapiens) [compound 202] | “+++” (≥50 = +++) |
| 231 (FLSPQQPPLLL; listed as Homo sapiens) [compound 231] | “++” (≥20% = ++) |
| 460 (AMLEKNYKL; listed as Homo sapiens) [compound 460] | “++++” (≥75% = ++++) |
| 383 (ALLELENSVTL; listed as Homo sapiens) [compound 383] | “+++” (≥50 = +++) |
| 462 (KLAKQPETV; listed as Homo sapiens) [compound 462] | “+++” (≥50 = +++) |
| 200 (LLFGSVQEV; listed as Homo sapiens) [compound 200] | “+++” (≥50 = +++) |
| 224 (TLIDAQWVL; listed as Homo sapiens) [compound 224] | “+++” (≥50 = +++) |
